The record followed here is patent US20230174628A1 (PEKING UNIVERSITY, published 2023).

For the experiment, the target named is S protein (Spike) of the novel coronavirus SARS-CoV-2 (SARS-CoV-2, UniProt P0DTC2 14-1273). Nature of the experiment: cell-based or functional assay.

B1: antigen-binding unit ABU-174 (antibody, V domains shown)
VH: QVQLQQWGAGLLKPSETLSLTCAVYGGSFSDYYWNWIRRPPGKGLEWIGEITHSGSTNYNPSLKSRVTISVDTSKNQFSLKLSSVTAADTAVYYCARGQGYGRVLLWFGEWGQGTLVTVSS
VL: EIVLTQSPATLSLSPGERATLSCRASQSVSTYLAWYQQKPGQAPRLLIYDASNRATGIPARFSGSGSGTDFTLTISSLEPEDFAVYYCQQRSNWITFGQGTRLEIK
With B1, the “IC50, PRNT with SARS-CoV-2 euvirus on Vero E6 cells” value worked out at 0.5 µg/mL and the “IC50, neutralization of SARS-CoV-2 pseudovirus (Huh-7 cells, luciferase)” value came to 0.026 µg/mL.

B2: antigen-binding unit ABU-190 (antibody, V domains shown)
VH: EVQLVESGGGLIQPGGSLRLSCAASGITVSSNYMSWVRQAPGKGLEWVSVIYSGGSTDYADSVKGRFTISRDKSKNTLYLQMNSLRAEDTAVYYCARDLGEAGGMDVWGQGTTVTVSS
VL: AIQLTQSPSSLSASVGDRVTITCRASQGISSYLAWYQQKPGKAPKLLIYAASTLQSGVPSRFSGSGSGTDFTLTISSLQPEDFATYYCQQLNSYPPAFGGGTKVEIK
Turning to B2, the “IC50, PRNT with SARS-CoV-2 euvirus on Vero E6 cells” value was determined as 0.8 µg/mL and the “IC50, neutralization of SARS-CoV-2 pseudovirus (Huh-7 cells, luciferase)” value was 0.039 µg/mL.
